Assays:
Test in all cases: pulldown; 150 mM NaCl, 50 mM Tris pH 8, 0.25% NP-40, 1 mM TCEP; 4 C, 2 h; 100 ug HeLa nuclear lysate
Settings in all cases: protein: extract; label: 5' biotin (strand 1)
VEZF1 = target: T1, VEZF1 (Homo sapiens, UniProt Q14119)
T1 sequence: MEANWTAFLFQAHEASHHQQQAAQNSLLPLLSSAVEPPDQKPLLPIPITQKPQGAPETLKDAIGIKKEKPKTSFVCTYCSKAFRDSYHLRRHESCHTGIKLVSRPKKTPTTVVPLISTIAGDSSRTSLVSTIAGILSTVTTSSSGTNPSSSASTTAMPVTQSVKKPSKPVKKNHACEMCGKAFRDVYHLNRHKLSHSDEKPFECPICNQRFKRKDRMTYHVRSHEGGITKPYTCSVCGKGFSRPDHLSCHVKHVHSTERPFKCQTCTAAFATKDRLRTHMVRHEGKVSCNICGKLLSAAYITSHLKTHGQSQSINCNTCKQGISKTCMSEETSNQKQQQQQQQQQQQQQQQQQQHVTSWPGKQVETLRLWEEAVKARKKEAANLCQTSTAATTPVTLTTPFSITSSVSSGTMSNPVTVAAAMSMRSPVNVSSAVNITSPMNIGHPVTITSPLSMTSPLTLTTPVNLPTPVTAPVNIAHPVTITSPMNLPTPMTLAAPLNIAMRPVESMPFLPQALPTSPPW

SP1 = SP1 (Homo sapiens, UniProt P08047)
TFAP2A = TFAP2A (Homo sapiens, UniProt P05549)
KLF16 = KLF16 (Homo sapiens, UniProt Q9BXK1)
KLF4 = KLF4 (Homo sapiens, UniProt O43474)
ZNF148 = target: T2, ZNF148 (Homo sapiens, UniProt Q9UQR1)
T2 sequence: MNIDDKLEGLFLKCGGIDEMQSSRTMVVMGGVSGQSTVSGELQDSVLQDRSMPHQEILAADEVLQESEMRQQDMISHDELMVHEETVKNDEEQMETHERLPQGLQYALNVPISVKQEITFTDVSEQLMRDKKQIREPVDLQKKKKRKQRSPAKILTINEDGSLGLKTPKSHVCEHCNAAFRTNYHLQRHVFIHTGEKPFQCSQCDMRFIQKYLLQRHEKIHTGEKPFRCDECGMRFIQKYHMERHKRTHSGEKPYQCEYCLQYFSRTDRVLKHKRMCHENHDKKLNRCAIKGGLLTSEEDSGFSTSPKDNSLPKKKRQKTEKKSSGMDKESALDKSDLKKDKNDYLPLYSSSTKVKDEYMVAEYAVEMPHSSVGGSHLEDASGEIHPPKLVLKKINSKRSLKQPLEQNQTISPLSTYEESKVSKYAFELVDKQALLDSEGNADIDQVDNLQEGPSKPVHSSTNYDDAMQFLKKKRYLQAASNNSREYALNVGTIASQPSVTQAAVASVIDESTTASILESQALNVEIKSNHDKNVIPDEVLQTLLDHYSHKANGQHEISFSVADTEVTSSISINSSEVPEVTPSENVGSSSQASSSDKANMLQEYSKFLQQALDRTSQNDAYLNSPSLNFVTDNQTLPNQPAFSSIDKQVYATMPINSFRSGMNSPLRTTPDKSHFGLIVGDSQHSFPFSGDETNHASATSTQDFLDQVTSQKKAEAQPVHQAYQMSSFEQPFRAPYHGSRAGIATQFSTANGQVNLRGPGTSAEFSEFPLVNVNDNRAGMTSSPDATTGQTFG

ZBTB7A = ZBTB7A (Homo sapiens, UniProt O95365)
BBX = target: T3, BBX (Homo sapiens, UniProt Q8WY36)
T3 sequence: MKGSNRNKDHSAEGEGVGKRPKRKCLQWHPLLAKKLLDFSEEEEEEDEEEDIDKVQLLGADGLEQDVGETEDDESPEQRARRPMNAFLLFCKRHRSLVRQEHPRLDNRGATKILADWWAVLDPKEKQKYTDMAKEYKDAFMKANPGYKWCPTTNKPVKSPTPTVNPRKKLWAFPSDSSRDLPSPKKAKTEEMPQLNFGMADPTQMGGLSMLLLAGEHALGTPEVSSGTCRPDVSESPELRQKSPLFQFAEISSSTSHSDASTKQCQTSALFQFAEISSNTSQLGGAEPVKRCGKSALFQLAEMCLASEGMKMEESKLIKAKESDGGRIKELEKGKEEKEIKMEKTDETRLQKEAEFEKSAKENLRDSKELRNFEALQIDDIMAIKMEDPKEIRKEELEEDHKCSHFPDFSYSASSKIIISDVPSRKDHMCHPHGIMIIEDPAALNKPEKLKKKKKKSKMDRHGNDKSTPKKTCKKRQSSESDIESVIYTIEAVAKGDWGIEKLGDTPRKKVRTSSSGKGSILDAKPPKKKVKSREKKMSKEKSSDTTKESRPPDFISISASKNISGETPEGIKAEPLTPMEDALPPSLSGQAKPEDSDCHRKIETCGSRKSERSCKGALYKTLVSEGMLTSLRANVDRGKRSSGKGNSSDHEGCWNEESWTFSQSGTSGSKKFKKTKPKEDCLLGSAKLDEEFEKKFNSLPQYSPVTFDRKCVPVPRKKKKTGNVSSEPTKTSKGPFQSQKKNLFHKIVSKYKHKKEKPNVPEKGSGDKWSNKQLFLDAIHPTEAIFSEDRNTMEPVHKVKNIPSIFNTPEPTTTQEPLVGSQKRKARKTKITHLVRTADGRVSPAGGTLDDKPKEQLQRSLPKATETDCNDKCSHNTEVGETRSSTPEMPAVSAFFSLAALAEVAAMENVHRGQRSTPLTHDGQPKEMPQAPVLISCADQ

Sequence of SP1 (P08047 whole entry): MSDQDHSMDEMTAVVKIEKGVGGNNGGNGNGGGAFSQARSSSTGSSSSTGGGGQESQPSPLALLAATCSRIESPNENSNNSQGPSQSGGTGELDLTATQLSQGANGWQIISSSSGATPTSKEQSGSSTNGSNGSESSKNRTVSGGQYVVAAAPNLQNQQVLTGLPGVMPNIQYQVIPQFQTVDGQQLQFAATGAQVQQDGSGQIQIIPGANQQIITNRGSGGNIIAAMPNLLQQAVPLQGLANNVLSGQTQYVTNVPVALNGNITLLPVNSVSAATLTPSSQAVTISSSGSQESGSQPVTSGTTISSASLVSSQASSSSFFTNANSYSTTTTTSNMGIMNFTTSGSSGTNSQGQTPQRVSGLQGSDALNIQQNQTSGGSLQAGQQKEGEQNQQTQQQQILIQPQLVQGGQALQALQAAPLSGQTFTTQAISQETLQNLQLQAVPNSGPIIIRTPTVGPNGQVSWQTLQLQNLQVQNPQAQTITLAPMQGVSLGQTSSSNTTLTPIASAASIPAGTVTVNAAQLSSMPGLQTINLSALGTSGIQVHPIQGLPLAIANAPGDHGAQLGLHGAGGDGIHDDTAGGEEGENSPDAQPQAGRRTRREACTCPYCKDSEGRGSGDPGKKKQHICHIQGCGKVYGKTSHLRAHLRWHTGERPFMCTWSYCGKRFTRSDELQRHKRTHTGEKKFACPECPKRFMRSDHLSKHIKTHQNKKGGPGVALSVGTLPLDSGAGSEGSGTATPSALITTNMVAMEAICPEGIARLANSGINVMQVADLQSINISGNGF
Sequence of KLF16 (Q9BXK1 whole entry): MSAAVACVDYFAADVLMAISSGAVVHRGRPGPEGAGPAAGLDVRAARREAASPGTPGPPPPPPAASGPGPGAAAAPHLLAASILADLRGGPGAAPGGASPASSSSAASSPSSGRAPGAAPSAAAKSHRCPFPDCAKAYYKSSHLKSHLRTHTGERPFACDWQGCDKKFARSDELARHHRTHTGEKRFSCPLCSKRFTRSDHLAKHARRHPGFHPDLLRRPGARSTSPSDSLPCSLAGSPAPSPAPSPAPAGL
Sequence of ZBTB7A (O95365 whole entry): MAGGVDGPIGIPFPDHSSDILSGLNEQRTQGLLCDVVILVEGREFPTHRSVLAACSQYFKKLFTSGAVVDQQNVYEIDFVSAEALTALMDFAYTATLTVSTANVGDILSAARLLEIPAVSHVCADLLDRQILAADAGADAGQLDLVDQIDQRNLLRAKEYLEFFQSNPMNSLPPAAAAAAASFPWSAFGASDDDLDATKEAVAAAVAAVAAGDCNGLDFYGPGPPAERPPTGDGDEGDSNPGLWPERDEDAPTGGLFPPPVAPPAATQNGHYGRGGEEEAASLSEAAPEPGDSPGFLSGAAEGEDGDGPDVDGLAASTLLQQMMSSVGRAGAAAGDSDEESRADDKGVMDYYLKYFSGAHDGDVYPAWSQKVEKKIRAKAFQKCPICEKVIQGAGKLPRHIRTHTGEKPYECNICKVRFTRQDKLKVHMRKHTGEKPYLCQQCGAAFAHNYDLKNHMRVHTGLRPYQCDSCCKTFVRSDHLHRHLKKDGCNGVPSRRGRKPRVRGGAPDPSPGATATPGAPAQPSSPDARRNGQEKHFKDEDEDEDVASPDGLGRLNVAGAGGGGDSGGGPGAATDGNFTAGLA
Sequence of KLF4 (O43474 whole entry): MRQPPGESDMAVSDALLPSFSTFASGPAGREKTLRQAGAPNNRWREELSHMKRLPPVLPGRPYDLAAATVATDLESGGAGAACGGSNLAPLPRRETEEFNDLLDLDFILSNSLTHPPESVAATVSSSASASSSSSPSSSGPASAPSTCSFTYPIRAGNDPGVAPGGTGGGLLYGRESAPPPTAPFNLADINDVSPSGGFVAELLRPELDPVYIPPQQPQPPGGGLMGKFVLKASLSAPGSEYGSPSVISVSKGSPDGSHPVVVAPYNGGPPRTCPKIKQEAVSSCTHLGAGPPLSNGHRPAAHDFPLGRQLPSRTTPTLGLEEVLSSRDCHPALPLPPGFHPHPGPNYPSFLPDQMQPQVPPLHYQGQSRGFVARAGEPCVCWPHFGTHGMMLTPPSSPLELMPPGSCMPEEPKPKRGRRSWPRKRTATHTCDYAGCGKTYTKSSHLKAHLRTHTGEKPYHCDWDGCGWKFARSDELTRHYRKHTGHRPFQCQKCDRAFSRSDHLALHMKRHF
Sequence of TFAP2A (P05549 whole entry): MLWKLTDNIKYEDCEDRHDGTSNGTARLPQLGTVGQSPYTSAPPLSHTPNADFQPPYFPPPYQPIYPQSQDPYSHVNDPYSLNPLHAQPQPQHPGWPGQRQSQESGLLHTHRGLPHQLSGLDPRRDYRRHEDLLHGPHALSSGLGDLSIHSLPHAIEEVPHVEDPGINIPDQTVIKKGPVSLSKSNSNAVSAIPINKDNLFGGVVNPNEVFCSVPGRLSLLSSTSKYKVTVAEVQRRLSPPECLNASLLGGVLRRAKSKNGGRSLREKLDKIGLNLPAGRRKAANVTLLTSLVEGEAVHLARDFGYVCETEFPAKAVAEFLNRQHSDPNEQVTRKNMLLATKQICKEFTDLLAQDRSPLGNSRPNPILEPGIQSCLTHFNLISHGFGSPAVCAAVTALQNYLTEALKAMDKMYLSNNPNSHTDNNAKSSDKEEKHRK

B1: CTCF (dsDNA)
DNA 1: TCAGAGTGGCGGCCAGCAGGGGGCGCCCTTGCCAGA
DNA 2: TCTGGCAAGGGCGCCCCCTGCTGGCCGCCACTCTGA
VEZF1
  apparent K (half saturation): 34.1 nM
SP1
  apparent K (half saturation): 86.9 nM
TFAP2A
  apparent K (half saturation): 83.3 nM
KLF16
  apparent K (half saturation): 109 nM
KLF4
  apparent K (half saturation): 26.3 nM
ZNF148
  apparent K (half saturation): 63.7 nM
ZBTB7A
  apparent K (half saturation): 38.9 nM
BBX
  apparent K (half saturation): 308 nM

B2: TEAD (dsDNA)
DNA 1: TCGGGACCCAGGCCTGGAATGTTTCCACC
DNA 2: GGTGGAAACATTCCAGGCCTGGGTCCCGA
VEZF1
  apparent K (half saturation): 225 nM
TFAP2A
  apparent K (half saturation): 193 nM
ZNF148
  apparent K (half saturation): 387 nM
ZBTB7A
  apparent K (half saturation): 129 nM
BBX
  apparent K (half saturation): 390 nM

B3: TATA-box (dsDNA)
DNA 1: GCGGCGCTCTATATAAGTGGGCAGTG
DNA 2: CACTGCCCACTTATATAGAGCGCCGC
VEZF1
  apparent K (half saturation): 227 nM
SP1
  apparent K (half saturation): 284 nM
TFAP2A
  apparent K (half saturation): 328 nM
KLF16
  apparent K (half saturation): 151 nM
KLF4
  apparent K (half saturation): 159 nM
ZNF148
  apparent K (half saturation): 383 nM
ZBTB7A
  apparent K (half saturation): 258 nM
BBX
  apparent K (half saturation): 405 nM

B4: SP/KLF wild-type (dsDNA)
DNA 1: GAGAGCCCCGCCCCCTGGCT
DNA 2: AGCCAGGGGGCGGGGCTCTC
VEZF1
  apparent K (half saturation): 182 nM
SP1
  apparent K (half saturation): 38 nM
TFAP2A
  apparent K (half saturation): 196 nM
KLF16
  apparent K (half saturation): 14.5 nM
KLF4
  apparent K (half saturation): 79.3 nM
ZNF148
  apparent K (half saturation): 70.5 nM
ZBTB7A
  apparent K (half saturation): 174 nM
